According to the nanobody polyreactivity screen of Harvey et al. (2022):

Assay: yeast display, Sf9 membrane polyspecificity reagent, FACS + sequencing; frameworks hold sequencing errors
How it was run: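 After 36–48 hours of galactose induction, yeast (Saccharomyces cerevisiae BJ5465) displaying a synthetic nanobody library were stained at 4 °C for 1 hour with 10% biotinylated, detergent-solubilized Sf9 membrane reagent. Streptavidin microbeads enriched the stained cells before FACS sorting into low and high (top ~1%) gates on anti-HA and streptavidin fluorescence. Each clone's polyreactivity label reflects its gate of origin.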

Sequence	polyreactivity (PSR sort gate)
QVQLVESGGGLFQAGGSLRLSCAASGRTFSHNGMGWYRQAPGKERELVATINRGGNTYYADSVKGRFTISRDNAKNTVYLQMNSLKPEDTAVYYCAARRSFLFDEGNYWGQGTQVTVSS	low polyreactivity
QVQLVESGGGLFQAGGSLRLSCAASGRTFYKYAMGWYRQAPGKERELVATITSGGSTNYADSVKGRFTISRDNAKNTVYLQLNCLKPEETAVYYFAARGHIYKIRDPYWTHDFWGQGTQVTVSS	low polyreactivity
QVQLVESGGGLFQAGGSLRLSCAASGRTLLGNAMVWYRQAPGKEREFVAAISYRGGSTYYADSVKGRFTISRDYAKNTVYLQMKSLKPEDTAVYYCAASSFKYSRFDYWGQGTQVTVSS	low polyreactivity
QVQLVESGGGLFQAGGSLRLSCAASGRTLRRNALGWYRQAPWKERELVAAISTGGGSTYYADSVKGRFTISRDYAKKTVYLQINSLNPEDSAVYYCAAVYSQSTKRYELYYWGQGTQVTVSS	high polyreactivity
QVQLVESGGGLFQAGGSLRLSCAASGRTVVGYAMGWYRQAPGKERELVAAFTGSGGRTYDADSVKGRFTISRDNAKNTVYLQMKSLKPEDTAVYYCNNVYRFSSGAYLYDYWVQGTQVTVSS	high polyreactivity
QVQLVESGGGLFQAGGSLRLSCAASGSIFAWYAMGWYRQAPGKERELVAVITSGGSTNYADSVKGRFTISRDNEKNTVYLQMNSLKPEDTAVYYCAAGSYYSWYPFDYWGQGTQVTVSS	low polyreactivity
QVQLVESGGGLFQAGGSLRLSCAASGSIFRAYAMVWYRQAPGKERELVAAITRGGSTNYADSVKGRFTISRDNAKNTVYLQMNSLKPEDTAVYYCAAQNYWYYPRRFDYWGQGTQVTVSS	high polyreactivity
QVQLVESGGGLFQAGGSLRLSCAASGSIFRYYAMGWYRQAPGKERELVARISWRGGSTYADSVKGRFTISRDNAKNTVYLQMNSLKPEDTAVYYCAGVLAVGSYDYWGQGTQVTVSS	low polyreactivity
QVQLVESGGGLFQAGGSLRLSCAASGSIFVGYAMGWYRQAPGKERELVAAITNSGGRTYYADSVKGRFTISRDNAKNTVYLQMNSLKPEDTAVYYCNRVTGKYRYWVGFEYWGQGTQVTVSS	high polyreactivity
QVQLVESGGGLFQAGGSLRLSCAASGSISIKNAMGWYRQAPGKERELVATITYNGGSTYYADSVKGRFTISRDNAKNTVYLQMNSLKPEDTAVYYCARDAFEPYDVGEYYYWGQGTQVTVSS	low polyreactivity
QVQLVESGGGLFQAGGSLRLSCAASGSTFIYYVMGWYRQAAGKVWELVAAISTSGGRTYYADSVKGRYTISRDNAMNTVSLLMNSLKPVVTAVYYCAAVARTNGSIKFESWGQGTQVTVSS	high polyreactivity
QVQLVESGGGLFQAGGSLRLSCAASGSTFPYNAMGWYRQAPGKERELVAAITWRAGRTYYADSVKGRFTISRDNAKNTVYLQMNSLKPEDTAVYSCAKSYQRGVNHYEYWGQGTQVTVSS	high polyreactivity
QVQLVESGGGLFQAGGSLRVSCAASGRIFFPYAMGWYRQAPGKERELVASIRGGGSTSYADSVKGRFTFSRDNAKNTVYLQMNSLKPEDTAVYYCAATPQAYWVLWSTYYTYYYWGQGTQVTVSS	high polyreactivity
QVQLVESGGGLFQAGGSLSLSCAASGRTLWLYTKRWYTQAPGKEWELVARIRSGGSTYYADSVKGRFTISRDNAKNTVYLQMNSLKPEDTAVYYCAVGSRYYGRGYYYWGQGTQVTVSW	high polyreactivity
QVQLVESGGGLFQAGGTHRLSCAASGFISKYYAMGWYRQAPGKERELVSSISRDGSTSYADSVKGRFTISRDNAKNTVYLQMNSLKAEDSAVYYCAAPSYRTRYYYWGQGTQVTVSS	high polyreactivity
QVQLVESGGGLFQAGRSLRISCAASGFIFSQNTMGWYRQAPGKEWELVAAISKSRGTTYYADSVKGRYTITRDNAKNTVYLQMYSLKPEDTAVYYCAARIQWPTWSLYYYWGQGTQVTVSS	high polyreactivity

Sequence	polyreactivity (PSR sort gate)
QVQLVESGGGLFQAGVSLRLSCAASGSTIGVNAMGWSRKAPGKERELVAAISRGGGRTYYADSVKWRFTISRDIAKKTVYLQMICLKPEDTAVYYCNTDFGARMGYWGQGTEVTVSS	high polyreactivity
QVQLVESGGGLFQARGSLRLSCAASGLTFWYYDMGWYRQAPGKERELFAAINSGGSTYYADSEKGRFTISRDNAKNTVYLEINRLKPEDTAVYYCNKDFSKTWRYASYYYWGQGTQVTVSS	low polyreactivity
QVQLVESGGGLFQEGGSLRLSCAASGSIFNGYAMGWYRQAPGKEREFVDAITFSATSTYYADSVKRRFTLSRDNAKNTVYLQMNSLKPEDTAVYYCAVAVPLSRYWWRRTYDYWGQGTQVTVSS	low polyreactivity
QVQLVESGGGLFQEGGSLRLSCAASGSTFSVNAMGWYRQAPGKERELVAAISKRVGSTYYADSVKGRFTISRDNAKNTVYLQMNSLKPEDTAVYYCAAVIVHYGRAYDYWGQGTQVTVSS	high polyreactivity
QVQLVESGGGLGQAGGSLRLSCAASGFIFGSYAMGWYRQAPGKARELVAAISWSGASTYYADSVKGRFTISRDNAKKTVYLQMNSLIPEDTAVYYCAAVSRYGWYDYWGQGTQVTVSS	high polyreactivity
QVQLVESGGGLGQAGGSLRLSCAASGFIFVWYAMGWYRQAPGKERELVAAINWSGGHTYYADSVKGRFTISRDNSKNTVYLQMNSLKPEDTAVYYWNADSLWYWFYPYNYWGQGTQVTVSS	low polyreactivity
QVQLVESGGGLGQAGGSLRLSCAASGFTFSSNAMGWYRQAPGNERALVAAISGNGGITYYADSVKGRFTISRDNAKNTVYLQMNCLKPEDTAVDYCAAEAYRYAWYDYWGQGTQVTVSS	high polyreactivity
QVQLVESGGGLGQAGGSLRLSCAASGFTYYYYAMGWYIQAPRKDRELVAAISGGGGSTYYADSVKGRFTLSRDNAKNTVYLQMNSLKQVDTAVYYCAAVGSWRYYYDYDYWGQGTQVNVSS	high polyreactivity
QVQLVESGGGLGQAGGSLRLSCAASGLTFTKNVMGWSSQAPGKERELVAVISRSGGSTYYADSVKGRFTISRDNAKNTVYLQMISLKPEDTAVYYCNVKGPGPSRGNYWGQGTQVTVSS	low polyreactivity
QVQLVESGGGLGQAGGSLRLSCAASGRIFRYNAMGWYRQAPGKERELVAAITSGTGTNYADSVKGRFTISRDNAKNTVYLQMNSLKPEDTAVYYCNKVRKSYRYDYWGQGTQVTVSS	low polyreactivity
QVQLVESGGGLGQAGGSLRLSCAASGRIFVGYAMGWYRQAPGKERELVAAIDVGGGSTYYADSVKGRFTISRDNAKNTVYLQMNSLKPEDTAVYYCAADAFGWSSYWPYDYWGQGTQVTVSS	low polyreactivity
QVQLVESGGGLGQAGGSLRLSCAASGRIFYSYAMGWSRQAPGKESELVAAITESGGSTNYADSVKGRFTISRDNAKNTVYLQMNSLNPEDTAVFYCNARYKLTFNLYNYWGQGTQVTVSS	low polyreactivity
QVQLVESGGGLGQAGGSLRLSCAASGRTFRYYAKGWYRQAPGKERELVAAINRGGSTSYADSVKGRFTISRDNAKNTVYLQMNSLKPEDTAVYYCNVDKYRLVGFHSPYDYWGQGTQVTVSS	high polyreactivity
QVQLVESGGGLGQAGGSLRLSCAASGSIFSSYAMGWYRQAPGKERELVAAISQSGGDTYYADSVKGRFTISRDNAKNTVYLQMNSLKPEDTAVYYSAASVWYYPMDYWGQGTQVTVSS	low polyreactivity
QVQLVESGGGLGQAGGSLRLSCAASGSTFGRYVMGWYRQAPGKERELVAAISKNSGSTYYAYSVKGRFTISRDNAKNTVYLQMNSLKPEDTAVYYCAADWRSKGYDSLGQGTQVTVSS	high polyreactivity
QVQLVESGGGLIQAGGSLRLSCAASGSILSDYVMAWYRQAPGKERELVAAITNDDSTNYADSVKGRFTISRDNAKNTVYLQMNSLKPEETAVYYCAAEWLVVYYISTGESYKVEFDYCGQGTQVTVSS	low polyreactivity
